Data reported in the DeepSol protein solubility set.

test: soluble on expression in E. coli; label from the status in PepcDB or PDB records

Soluble on expression in E. coli, soluble:
MDDVRLHAIYQDITRDYLPPASLNHLMLLSKQTQHKLSFKSAPIPDLQPFFKNFTSKTPGSAKESPCSSTAKISSSISISSQCIFNVVILSFVFTSQNLNLPSHPALHNVSPESLNDRLMTQLECANSPRLACELWVGTDKEPILSPNSVSYRVMQPNEFES
SAEGSRGGPTCSGVGGRQDPVSGSGGCNFPEYELPELNTRAFHVGAFGELWRGRLRGAGDLSLREPPASALPGSQAADSDREDAAVARDLDCSLEAAAELRAVCGLDKLKCLEDGEDPEVIPENTDLVTLGVRKRFLEHREETITIDRACRQETFVYEMESHAIGKKPENSADMIEEGELILSVNILYPVIFHKHKEHKPYQTMLVLGSQKLTQLRDSIRCVSDLQIGGEFSNTPDQAPEHISKDLYKSAFFF
SNASYETSQHNLDAVEAVLSRLQKQTGEMAAYMVPVGYRALCVSQRESMQALRCSFVQGQSQPLLRGASSKVMLAYMPAARCEKILRYFGEDPTLDKWQSEFEKIRRHGYAVSTSEIDPGVSGISAPVMKGSKLIGAISVMAPAHRVESNKQRIILHVLQAARAL

Soluble on expression in E. coli, not soluble:
MDFDYVIAGGGSAGCTLAARLSEDPSKTVCLIEAGGAGSNLLIRAPAGIIALLPGRPKINNWAFETVPQQGLGGRKGYQPRGKALGGSSAINAMLYTRGHRGDYDEWADLGCDGWSWDEVLPYFRRAEGNQRGADALHGGDGPLRVAEQQEPRPLSRAFVEACGENQIRRNDDFNGVEQEGAGLYQVTQFWGERRNGERCSVAAAYLQPAMNRSNLTVITGAHATAVILDGKRATGVRYRAGKDEAVAKARREVIVCGGAFGSPQLLLLSGIGPAAELAMHGIPVIHELPGVGKNLQDHLDFIMGWTSKDADMMGIGLRGLPGLLRHMLRWRKDGGGMIATPYAEGGAFLKSDPAIERPDLQLHFCIAIVDDHGRKLHMGYGFSCHVCVLRPHSRGEVGLSTHDPMAPPRIDPRFLSDERDAELLLKGVRMMRGILEAPALARYRHKEIYTAGVSSDADLMSHIRARADTIYHPAGTCKMGVDELAVVDPQLRVHGLEALRVVDASVMPTLIGGNTNAPTIMIAEKAADMIKAAALEHHHHHH
MKRHYLFSICILTLLLLAACGSSATEDHELEVPEDQETIEIDGEEEDSSQPVFSDEEALVVDDLLEEESRGEEATEHSEPIEEDTSTPSEASGSENVEETEQQPADENNQAFALNVKKFKLELEWQDGDELEMEYEQKKNEKGKAKVEWDGAHKEKMSGKQAVEWMEDFLSQLDLSEGTNSDRLKSQVYAILDIDPSEVEELDLEIEFFDMAGDPLEHHHHHH
MSFFHANQREALNQSLSELQGQINVSFEFFPPRTSEMEDTLWSSIDRLSTLKPKFVSVTYGANSGERDRTHSIIKGIKERTGLEAAPHLTCIDASPTQLRDIAIDYWNSGIRHIVALRGDLPPNSGKPEMYACDLVGLLKDVGDFDISVAAYPEIHPEAKSAQADLINLKRKIDAGANRAITQFFFDVESYLRFRDRCVATGIDVEIVPGILPVSNFKQLQRFATMTNVRVPNWMTSIFDGLDNDPETRKMVGASVAMDMVKILSREGVKDFHFYTLNRAELSYAICHTLGVRP
MSIKQWPEGERPREKLLERGAAALSDAELLAILLRVGTRGMSAVDLARYLLQEFGSLGRLMSAEVGKLSAYKGMGTASFTQFAVVREIGRRILAEELQESIVLSDPDTVADYLRFHLGQEKVEVSVALLLNRQNQLIAVRELSRGTVAENTIYIREIVKLALDEYADSLIIAHNHPGGSPEPSQEDIMFTRRLAQAMSLVDVSLLDHFIVTSQSVCSFRQLGLMP
MGSDKIHHHHHHMPSLREQQHPLIRQLADCIEAAWHQHLDLSPYHLPDELGYVEGRLEGEKLTIENRCYQTPQFRKMHLELANIGNMLDILHCVMFPRPQYNLPMFGCDLVGGRGQISAAIADLSPIQLERTLPESYTTALAQLPVLNFSQPRELPEWGNIFSDFCIFVRPGSPEEEAMFLSRVREFLDIHCMQAIASHPVSVEQVTQNLAGQHNYCTKQQQNDKTRRVLEKAFGPVWAENYMTTVLFDLPT
MCILFIAIEQHPKYPLIICANRDEFHQRPTQAMHVWQESNILAGKDLQAGGTWLGLSSTGKFAALTNFRKLPLSEAPKKSRGDLVLQALADTKINMTAELAQQASQYHGFNLIYGSLKQLYCYDSVNNQSHQLSDGVHSICNGALDDIWPKMARGEKLLSETIRSQKNLSIEALFDLMTNDKQALPHLLPETGLDEEWEQLLSAIFIKSPTYGTRTTTIITQDVEGNVETYDRSYAPSGECITKQQFNLATVFDLEHHHHHH
